Measured values taken from FireProtDB (doi:10.1016/j.bbapap.2014.10.010).

B1: Alanine--glyoxylate aminotransferase, P21549 (parent)
chain: MASHKLLVTPPKALLKPLSIPNQLLLGPGPSNLPPRIMAAGGLQMIGSMSKDMYQIMDEIKEGIQYVFQTRNPLTLVISGSGHCALEAALVNVLEPGDSFLVGANGIWGQRAVDIGERIGARVHPMTKDPGGHYTLQEVEEGLAQHKPVLLFLTHGESSTGVLQPLDGFGELCHRYKCLLLVDSVASLGGTPLYMDRQGIDILYSGSQKALNAPPGTSLISFSDKAKKKMYSRKTKPFSFYLDIKWLANFWGCDDQPRMYHHTIPVISLYSLRESLALIAEQGLENSWRQHREAAAYLHGRLQALGLQLFVKDPALRLPTVTTVAVPAGYDWRDIVSYVIDHFDIEIMGGLGPSTGKVLRIGLLGCNATRENVDRVTEALRAALQHCPKKKL

Variants of: B1
Conditions: Homo sapiens; pH 7.4; Thermal; DSC; Hepes 20 mM; NaCl 200 mM; transition: 2; reversible: No; structure 1H0C; whole UniProt chain shown

## D52E I340M
  Tm: 86.9 °C
  change of melting temperature, mutant - wild type (higher = more stable): 16.9 °C
  unfolding enthalpy (calorimetric): 573 kcal/mol

## S48H I340M
  Tm: 88 °C
  change of melting temperature, mutant - wild type (higher = more stable): 18 °C
  unfolding enthalpy (calorimetric): 599 kcal/mol

## D52E
  Tm: 84.4 °C
  change of melting temperature, mutant - wild type (higher = more stable): 14.4 °C
  unfolding enthalpy (calorimetric): 544 kcal/mol
